Laboratory results from paper PMC10207940, “Characterization of RBD-specific cross-neutralizing antibodies responses against SARS-CoV-2 variants from COVID-19 convalescents” (Frontiers in Immunology, 2023).

B1: antibody 1D7 (antibody, V domains shown)
VH: QVQLVQSGAEVKTPGSSVKVSCKASGGSFSNYAISWVRQAPGQGLEWMGRIIATLGISNYAQKFQGRVTMTADKSTSTAYMELSSLRSEDTAVYYCASPITNFGVLIEVDAFHIWGQGTMVTVSS
VL: EIVLTQSPFTLSLSPGERATLSCGASQSVSSSYLAWYQQKPGLAPRLLIYDGSSRATDIPDRFSGSGSGTDFTLTISRLEPEDFAMYYCQQYSTSPLTFGGGTKVEIK
B2: antibody 3C11 (antibody, V domains shown)
VH: EVQLVESGGGLVQPGGSLRLSCAASGFAFSTYEMNWVRQAPGKGLEWVSYIHNSGNPVYYADSVKGRFTISRDNAENSLYLQMNSLRAEDTAIYYCARALRYSTSWYDYWGQGTLVTVSS
VL: EIVLTQSPVSLSLSPGERATLSCRASQSVSSYLAWYQQKPGQAPRLFIYDASKRATGIPARFSGSGSGTDFTLTISSLEPEDFAVYYCQQRSNWPRTFGQGTKVEIK
B3: antibody 3G10 (antibody, V domains shown)
VH: EVQLVESGGGLVQPGESLRLSCAASGLTVSSNYMSWVRQAPGKGLEWVSVIYAGGSTFYADSVKGRFTISRDNSKNTLYLQMNSLRAEDMAIYYCARDLSYYGMDVWGQGTTVTVSS
VL: DIQLTQFPFSLSASVGDRVTITCRASQGISTYLAWYQQKPGRAPKLLIYAASTLQSGVPSRFSGSGSGTEFTLTISSLQPEDFATYYCQLLNSYPVHFGQGTKLEIK

Assays:
[1] = target: T1, SARS-CoV-2 RBD (receptor binding domain) with Avi-tag, biotinylated (SARS-CoV-2, WH-1 (Wuhan-Hu-1, MN908947), UniProt P0DTC2); test: cell-based or functional assay
[2] = target: T1, SARS-CoV-2 RBD (receptor binding …); test: BLI; biotinylated RBD (5 μg/mL in PBST: PBS, 0.02% Tween 20, 0.1% BSA) immobilised on streptavidin biosensors; antibodies 500-7.8125 nM, 120 s association, 300 s dissociation; 1:1 binding model; conditions: both partners purified
[3] = target: T2, SARS-CoV-2 RBD as crystallised with 3G10 and 3C11 (SARS-CoV-2, prototype (WH-1)); test: crystal structure; conditions: both partners purified
T2 construct: also called prototype (PT) RBD

| Binder | IC50 of neutralisation of SARS-CoV-2 pseudovirus (WH-1), luciferase read-out on Vero cells [1] [µg/mL] | IC50 of neutralisation of authentic SARS-CoV-2 WH-1 virus, CPE-based method on Vero cells [1] [µg/mL] | Kd [2] [nM] | binding result [3] |
| --- | --- | --- | --- | --- |
| B1 | < 0.1 | 0.009 | < 0.001 |  |
| B2 | < 0.1 | 0.028 | 5.29 | binds |
| B3 | < 0.1 | 0.028 | 1.37 | binds |
